Earlier results on one substance are cited in PMC5457079.

This series addresses insulin (Homo sapiens) (UniProt P01308).

With insulin (from UniProt P01308), the dissociation constant Kd is 10 µM.

The term Kd denotes the concentration at which binding is half-saturated.
